From patent US11667697 (VANDERBILT UNIVERSITY, dated 2023)

T1: VACV D8 protein (vaccinia virus, UniProt P04195 1-261)
T1 sequence: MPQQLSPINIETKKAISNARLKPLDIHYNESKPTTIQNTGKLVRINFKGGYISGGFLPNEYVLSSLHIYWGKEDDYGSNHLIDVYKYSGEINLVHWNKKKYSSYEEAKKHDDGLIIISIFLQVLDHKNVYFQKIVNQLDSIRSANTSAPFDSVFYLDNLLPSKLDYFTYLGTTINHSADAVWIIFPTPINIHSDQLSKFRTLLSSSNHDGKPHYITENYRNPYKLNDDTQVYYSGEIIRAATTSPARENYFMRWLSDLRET

T2: VACV A27 protein (vaccinia virus, UniProt P11258 1-110)
T2 sequence: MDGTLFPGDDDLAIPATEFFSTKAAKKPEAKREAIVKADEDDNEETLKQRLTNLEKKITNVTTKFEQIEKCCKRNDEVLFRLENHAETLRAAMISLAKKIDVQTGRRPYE


Assays:
VACV D8 protein [1] = molecular target: T1, VACV D8 protein; assay: lysate ELISA
VACV B5 protein [2] = molecular target: T3, VACV B5 protein (vaccinia virus, UniProt Q01227 20-275); assay: purified antigen ELISA
VACV B5 protein [3] = molecular target: T3, VACV B5 protein; assay: lysate ELISA
VACV B5 protein [4] = molecular target: T3, VACV B5 protein; assay: cell-based or functional assay
VACV A27 protein [5] = molecular target: T2, VACV A27 protein; assay: purified antigen ELISA
VACV A27 protein [6] = molecular target: T2, VACV A27 protein; assay: lysate ELISA
VACV D8 protein [7] = molecular target: T1, VACV D8 protein; assay: cell-based or functional assay

Row | Binder | EC50 (VACV D8 protein [1]) [µg/mL] | EC50 (VACV B5 protein [2]) [µg/mL] | PRNT Emax, VACV MV+C' (VACV D8 protein [7]) [%] | PRNT IC50, VACV MV+C' (VACV D8 protein [7]) [µg/mL] | other results
1 | MPXV-61 (antibody, V domains shown, human IgG1, anti-D8) V domain 1: QVQLVQSGAEVKKPGSSVKVSCKASGETFSRYAFSWVRLAPGQGLEWLGRIIPFIDIPNYAQKFQGRVTITADKSTSTAYMELSSLRSEDTAVYYCASSLPSTYYFGSGNYPWGNWLDPWGQGTLVTVSS V domain 2: QSVVTQPPSVSAAPGQNVTISCSGSSSNIGNNYVSWYHQLPGTAPKLLIYDNDKRPSGIPDRFSGSKSGTSATLGITGLQTGDEADYYCGTWDSSLSEVVFGGGTQVTVL | 0.007 |  |  |  | 
2 | MPXV-2 (antibody, V domains shown, human IgG1, anti-B5) VH: QVQLVQSGAEVKKPGASVKVSCKTSGYTFTTYAVHWVRQAPGQRLEWMGWINPGDGDTRYAQKFQDRVTISSDTSATTVYMELSSLRSEDTAVYFCARPRASLLRYFDWLFEQWGQETLVTVSS VL: EIVLTQSPGTLSLSPGDRATLSCGASQSIHHNYVAWYQQRPGQAPRLLIFGASSRATGIPDRFTGSGSGTEFTLTINRLEPEDFAVYYCQQYGNSVPYSFGQGTKVDIK |  | 0.03 |  |  | EC50 (VACV B5 protein [3]): > 6 µg/mL; PRNT Emax, VACV EV+C' (VACV B5 protein [4]): 67%; PRNT IC50, VACV EV+C' (VACV B5 protein [4]): 1 µg/mL
3 | MPXV-12 (antibody, V domains shown, human IgG3, anti-B5) VH: QVQLQQWGAGLLKPSETLSLTCAVYGGSFTNYYWSWIRQFPGKGLEYIGEIDHSGSANYNPSLKSRVTISLDTSKNQFSLRLSSVTAADTAVYFCARDVYGSGTYYWFDPWGQGTL VL: DIQMTQSPTSLSASVGDRVTITCRASQRISSHLNWYQQKPGKAPKLLIYVASSLQSGVPSRFSGSGSGTDYTLTISSLQPEDFATYFCQQSYTTPYTFGQGTNLQMK |  | 0.1 |  |  | EC50 (VACV B5 protein [3]): 5.85 µg/mL
4 | VACV-300 (antibody, V domains shown, human IgG1, anti-A27) V domain 1: QVQLVQSGAEVKKPGSSVKVSCKASGGTFSSYAISWVRQAPGQGLEWMGGIIPIFGTANYAQKFQGRVTITADESTGTAYMELTSLRSEDTAIYYCARASEQWLASINWFDPWGQGTLVTVSS V domain 2: QSALTQPASVSGSPGQSITISCTGTSSDVGSYNLVSWYQQHPGKAPKLMIYEVSKRPSGVSNRFSASKSGNTASLTISGLQAEDEADYYCCSYAGSSTLVFGGGTQVTVL |  |  |  |  | EC50 (VACV A27 protein [5]): 0.22 µg/mL; EC50 (VACV A27 protein [6]): > 0.37 µg/mL
5 | VACV-136 (antibody, V domains shown, human IgG1, anti-D8) V domain 1: QVTLKESGPVLVNPTETLTLTCTVSGFSLSNARMRVSWIRQPPGKALEWLAHIFSNDEKSYSTSLKSRLTISKDTSKSQVVLTMTNMDPVDTASYYCARMRGEYNSYYFDSWGQGTLVTVS V domain 2: SYELTQPPSVSVSPGQTARITCSGDALPNQYAYWYQQKPGQAPVLVIYKDSERPSGIPERFSGSSSGTTVTLTISGVQAEDEADYYCQSADSSGTSVVFGGGTQVTV | 0.06 |  | 84 | 0.4 | 
6 | VACV-282 (antibody, V domains shown, human IgG1, anti-B5) VH: EVQLVESGGGLVKPGGSLRLSCAASGFTFSSYSMNWVRQAPGKGLEWVSSISSISSYIYYADSVKGRFTISRDNAKNSLYLQMNSLRAEDTAVYYCARDRPRSRPNSGSYFWYYYGMDVW VL: SYELTQPPSVSVAPGQTARITCGGNNIGSKSVHWYQQKPGQAPVLVVYDDSDRPSGIPERFSGSNSGNTATLTISRVEAGDEADYYCQVWDSNSDHRVSA |  | 0.155 |  |  | 
7 | VACV-230 (antibody, V domains shown, human IgG1, anti-D8) VH: QVQLVQSGAEVKKPGASVKVSCKVSGYTLTELSMHWVRQAPGKGLEWLGGFDPEDGETIYAQKFQGRVTMTEDTSTDTAYMELSSLRSEDTAVYYCARESWLRGFDYWGQGTLVTVS VL: not shown | 0.6 |  | 77 | 0.1 | 
8 | MPXV-96 (antibody, V domains shown, human IgG1, anti-D8) VH: QVQLQQWGAGLLISSETLSLTCGVYGGSFSGYYWTWIRQPPGKGLEWIGEINYVGSTNYNPSLKSRVTMSVDTSKNHFSLSLSSVTAADTAVYYCARGLRGNSVCFDWGPGTLV VL: ELVMTQSPATLSVSPGERASLSCRASQSVSSNLAWYQQKPGQAPRLLIYGASTRATGLPARFSGSGSGTEFTLTISSLQSEDFAIYYCQQYNNWPRTFGQGTKVDI | 0.001 |  |  |  | 
9 | VACV-303 (antibody, V domains shown, human IgG1, anti-A27) VH: EVQLLESGGGLVQPGGSLRLSCAASGFTFSSYAMSWVRQAPGKGLEWVSAISGTGGNTYYADSVKGRFTISRDKSKNTLYLQMHSLRAEDTAVYYCATSLIWWLQSDYWGQGTLVTVSS VL: DIQMTQSPSSLSASVGDRVTITCRASQSIASYLIWYQQKPGNAPKLLIYAASSLQSGVPSRFSGSGSGTDFTLTISSLQPEDFATYYCQQSYSTPQTFGQGTKVDIK |  |  |  |  | EC50 (VACV A27 protein [5]): 0.02 µg/mL; EC50 (VACV A27 protein [6]): 0.05 µg/mL
10 | VACV-56 (antibody, V domains shown, human IgG1, anti-D8) VH: QVQLQQWGAGLLKPSETLSLTCAVYGGSFSGYYWSWIRQPPGKGLEWIGEINHSGSTNYNPSLKSRVTISVDTSKSQFSLKLSSVTAADTAVYYCARATQGSGTYKLFFYSYGMDVWGQGTTVTVSS VL: not shown | 0.01 |  | 81 | 0.04 | 
